Experimental data from the supplement of paper PMC9170038.

Tested on: MS2 coat protein
Experiment: apparent KD of MS2 coat protein; designed switch direction (-1 OFF switch, 1 ON switch): -1; higher = weaker reporter binding
Method in brief: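 Apparent KD, taken as the median over clusters for each design, was obtained by curve-fitting normalised cluster fluorescence. Designed RNA switches had been transcribed on Illumina chips by stalled E. coli RNA polymerase and titrated with SNAP-549-labelled MS2 coat protein, doubling from 0.7 or 1.5 nM to 3 µM.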

[1] = Eterna round: R95, input ligand: microRNA oligo, concentration not stated
[2] = input ligand: microRNA oligo, concentration not stated
[3] = Eterna round: R95, input ligand: FMN 200 uM
[4] = Eterna round: R95, input ligand: none

Sequence	apparent KD of MS2 coat protein [1]	apparent KD of MS2 coat protein (input ligand: FMN 200 uM)	apparent KD of MS2 coat protein (input ligand: none)	apparent KD of MS2 coat protein [2]	apparent KD of MS2 coat protein [3]	apparent KD of MS2 coat protein [4]
CAUUUGUGAGGAUAUCAGGUGUGCUAGCGUACUGGUACAUCUGAGAAGGCACAUGAGGAUCACCCAUGUUCCUC [Mat - Exclusion 4 - Mod of JL - D35] (puzzle: Exclusion 4)	44.1 nM					
UAAUUACAUGAGGAUCACCCAUGUGAGGAUAUGUCCAUAUUCGGCAAAUCGGAUAUGGACAGAAGGCACACCGG [JR_Exclusion1_Sub009] (puzzle: Exclusion 1)	55.8 nM					
AUUAUGUUAGGAUAUGCUUAUGGUGGAUAGUCCAAUGUGGUGCAGAAGGGACAUGAGGAUCACCCAUGUGCUGA [EX4 #30] (Eterna round: R97, puzzle: Exclusion 4)		92.3 nM	57.5 nM			
GUCGUGCAGCUUUGCUGUACGAGUACAUGAGGAUCACCCAUGUAGGAUAUGGUACGCUUUGCGUGCUAGAAGGAUAUGUGUAGA [salish99_ExNG3_r04_502] (Eterna round: R96, puzzle: Exclusion NG 3)		53.5 nM	36.1 nM	30.2 nM		
GAUUAUGCGAGCUUUAGGGACAUGAGGAUCACCCAUGUUCGUCUUAUUAAUCUGGGUACACUAGCAUACCUAAAUCU [JMF 8] (puzzle: Sensor v3, turn-off variant 1)	44.1 nM				26.9 nM	30.5 nM
UACAUGAGGAUCACCCAUGUUUUGUCGUGUAUGGUAUUUAUCUAGGAUAUCAAUUUAUUUAUUUAUGAGAAGGAGAAUAUUAAU [JMF's solution 5] (Eterna round: R96, puzzle: Exclusion NG 3)		36.3 nM	41.2 nM	28.1 nM		
AUUUUGUCAGGAUAUGAGUAGUAGGAUGAGAGUGCUACUACUUAGAAGGGACAUGAGGAUCACCCAUGUCUUCC [Bring Us a Shrubbery-06] (puzzle: Exclusion 4)	13.8 nM					
CAUCCGGCAGGAUAUACAUGAGGAUCACCCAUGUCAGAAAGCAAAUUGUGCGACUCAGGUAGAAGGGUUGGACU [Ederusat] (puzzle: Exclusion 3)	21.1 nM					
GAACUGAAGCAAAGCUUUAGUCGUACAUGAGGAUCACCCAUGUAGGAUAUGGUAGGCAAAGCUUACUAGAAGGACAGAGUGAUC [Mat - Exclusion NG 3 - Mod of JL - D70] (Eterna round: R96, puzzle: Exclusion NG 3)		338 nM	336 nM	336 nM		
AUUUAAUUUAGCGAGAUCACAUGAGGAUCACCCAUGUAUAUAUAGGAUAUCAGCUCGAAUAGAGCUGAGAAGGAUAUAUACCGC [ExNG3/7-A4] (Eterna round: R96, puzzle: Exclusion NG 3)				76.7 nM		
UUGAUGUGAGGAUAUAUAUGGUGGUUUUUUUAUUUUUUAUUACUUGAGGAUCACCCAAGUAGAAGGCGCUACGU [JR_Ex2_Sub069] (Eterna round: R97, puzzle: Exclusion 2)		29.4 nM	39.3 nM			
UCACCGCAAGGAUAUACUUGCGGUGAUGUUCGAAAUCUUCUACUUGAGGAUCACCCAAGUAGAAGGUGCGGUGA [jl-ex2.4.66 ViennaUCT mod] (Eterna round: R97, puzzle: Exclusion 2)		14.3 nM	12.8 nM			
UAUUUAGCAAGCAGAUCCCACAUGAGGAUCACCCAUGUUCUCUGAACGUACAGAAUUACUGUACGAGCUCGUCUUAU [Winner reversed engineered 30] (Eterna round: R97, puzzle: Sensor, turn-off variant 1)		352 nM	352 nM			
CAUGGAUGUGAGCCGCAUUACAUGAGGAUCACCCAUGUCAACAAGCUUUUUGCUUGUCUUACGCGGCGGCACCAGAA [Getelexe] (Eterna round: R96, puzzle: Sensor v3, turn-off variant 1)		13 nM	14.9 nM	6.81 nM		
CAGUACUGAGGAUAUACAUGAGGAUCACCCAUGUGUUCCAGCUAGGAAACUAGCUAAAGUAGAAGGCAGUACUG [salish99_ex3_r3_092x] (puzzle: Exclusion 3)	24.1 nM				459 nM	25 nM
UCAUGGGAGGCAGCUGCCCACAUGAGGAUCACCCAUGUUUUAGACAAACGGGUACAAGCUUUUAAUGCUCUUCUUUG [Eternabot (L2) Solution 49] (Eterna round: R97, puzzle: Sensor, turn-off variant 1)		587 nM	248 nM			
UCACUACCGCAAGGAUAUGUUGUCUGACACGCUGCGUGACAUGAGGAUCACCCAUGUGCUAGUUCGCAGAAGGUGCGGAAUGUG [Eternabot solution 34] (Eterna round: R96, puzzle: Exclusion NG 2)		63.2 nM	17.1 nM	9.98 nM		
